Laboratory results reported in patent US20230272064A1.

Key:
[1] = molecular target: recombinant human TIGIT extracellular membrane protein with a C-terminal histidine tag (human) (UniProt Q495A1); assay: competitive ELISA, TIGIT-His coated, competitor fixed biotin-CD155-Fc (signal), mAb at 5 µg/mL
[2] = molecular target: recombinant human TIGIT extracellular membrane protein with a C-terminal histidine tag (human) (UniProt Q495A1); assay: competitive ELISA, TIGIT-His coated, competitor fixed biotin-CD155-Fc (signal), mAb at 0.078 µg/mL
[3] = molecular target: recombinant human TIGIT extracellular membrane protein with a C-terminal histidine tag (human) (UniProt Q495A1); assay: competitive ELISA, TIGIT-His coated, competitor fixed biotin-CD155-Fc (signal), mAb at 0.625 µg/mL
[4] = molecular target: recombinant human TIGIT extracellular membrane protein with a C-terminal histidine tag (human) (UniProt Q495A1); assay: competitive ELISA, TIGIT-His coated, competitor fixed biotin-CD155-Fc (signal), mAb at 0.010 µg/mL
[5] = molecular target: recombinant human TIGIT extracellular membrane protein with a C-terminal histidine tag (human) (UniProt Q495A1); assay: competitive ELISA, TIGIT-His coated, competitor fixed biotin-CD155-Fc (signal), mAb at 0.019 µg/mL
[6] = molecular target: recombinant human TIGIT extracellular membrane protein with a C-terminal histidine tag (human) (UniProt Q495A1); assay: competitive ELISA, TIGIT-His coated, competitor fixed biotin-CD155-Fc (signal), mAb at 2.5 µg/mL
[7] = molecular target: recombinant human TIGIT extracellular membrane protein with a C-terminal histidine tag (human) (UniProt Q495A1); assay: competitive ELISA, TIGIT-His coated, competitor fixed biotin-CD155-Fc (signal), mAb at 1.25 µg/mL
[8] = molecular target: recombinant human TIGIT extracellular membrane protein with a C-terminal histidine tag (human) (UniProt Q495A1); assay: competitive ELISA, TIGIT-His coated, competitor fixed biotin-CD155-Fc (signal), mAb at 0.005 µg/mL
[9] = molecular target: recombinant human TIGIT extracellular membrane protein with a C-terminal histidine tag (human) (UniProt Q495A1); assay: competitive ELISA, TIGIT-His coated, competitor fixed biotin-CD155-Fc (signal), mAb at 0.312 µg/mL
[10] = molecular target: recombinant human TIGIT extracellular membrane protein with a C-terminal histidine tag (human) (UniProt Q495A1); assay: competitive ELISA, TIGIT-His coated, competitor fixed biotin-CD155-Fc (signal), mAb at 0.156 µg/mL
[11] = molecular target: recombinant human TIGIT extracellular membrane protein with a C-terminal histidine tag (human) (UniProt Q495A1); assay: competitive ELISA, TIGIT-His coated, competitor fixed biotin-CD155-Fc (signal), mAb at 0.039 µg/mL
[12] = molecular target: recombinant human TIGIT extracellular membrane protein with a C-terminal histidine tag (human) (UniProt Q495A1); assay: competitive ELISA, TIGIT-His coated, competitor fixed biotin-CD155-Fc (signal), mAb at 10 µg/mL

Sequence of recombinant human TIGIT extracellular membrane protein with a C-terminal histidine tag (human) (Q495A1 22-141): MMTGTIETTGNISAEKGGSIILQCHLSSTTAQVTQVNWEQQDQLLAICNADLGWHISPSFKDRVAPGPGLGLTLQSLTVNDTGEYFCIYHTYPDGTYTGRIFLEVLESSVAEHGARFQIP

- OD at 492 nm [1]: 1.1 OD
- OD at 492 nm [2]: 1.05 OD
- OD at 492 nm [3]: 1.06 OD
- OD at 492 nm [4]: 1.1 OD
- OD at 492 nm [5]: 1.08 OD
- OD at 492 nm [6]: 1.07 OD
- OD at 492 nm [7]: 1.08 OD
- OD at 492 nm [8]: 1.11 OD
- OD at 492 nm [9]: 1.03 OD
- OD at 492 nm [10]: 1.05 OD
- OD at 492 nm [11]: 1.05 OD
- OD at 492 nm [12]: 1.11 OD
Substance: anti-VEGF monoclonal antibody hPV19
